According to the supplement of paper PMC10567573:

B1: HSP90AB1 (parent)
chain: EADKNDKAVKDLVVLLFETALLSS

Variants of: B1
Assay: protein stability index of a GFP-peptide fusion (GPS, HEK-293T) (PSI 1-6); higher = more stable
Conditions: c terminus: a fixed tail appended
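Further: lentivirally expressed fusions sorted by FACS into six bins by GFP to DsRed ratio, PSI derived from sequencing read proportions per bin multiplied by bin number.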

In order of falling protein stability index:
1. EADKNDKAVKDDVVLLFETALLSS  4.21
2. EADKNDKAVKDLQVLLFETALLSS  4.08
3. EADKNDKAVKDEVVLLFETALLSS  3.99
4. EADKNDKAVKDLVPLLFETALLSS  3.93
5. EADKNDKAVKDNVVLLFETALLSS  3.89
6. EADKNDKAVKDLDVLLFETALLSS  3.81
7. EADKNDKAVKDLPVLLFETALLSS  3.78
8. EADKNDKAVKTLVVLLFETALLSS  3.74
9. EADKNDKAVKDLEVLLFETALLSS  3.74
10. EADKNDKAVKDQVVLLFETALLSS  3.71
11. EADKNDKAVKDLNVLLFETALLSS  3.7
12. EADKNDKAVKILVVLLFETALLSS  3.6
13. EADKNDKAVKDKVVLLFETALLSS  3.6
14. EADKNDKAVKDLSVLLFETALLSS  3.54
15. EADKNDKAVKDGVVLLFETALLSS  3.5
16. EADKNDKAVKDSVVLLFETALLSS  3.49
17. EADKNIKAVKDLVVLLFETALLSS  3.48
18. EADKNDKAVKDRVVLLFETALLSS  3.44
19. EADKNDKAVKDLGVLLFETALLSS  3.38
20. EADKNDKAVKDLKVLLFETALLSS  3.37
21. EADKNDWAVKDLVVLLFETALLSS  3.3
22. EADKNDKAVKRLVVLLFETALLSS  3.27
23. EADKNDKAVKDLTVLLFETALLSS  3.27
24. EADKNDKAVKDHVVLLFETALLSS  3.27
25. EADKNDKAVKCLVVLLFETALLSS  3.23
26. EADKNDKAVKDPVVLLFETALLSS  3.2
27. EADKNFKAVKDLVVLLFETALLSS  3.2
28. EADKNDKAEKDLVVLLFETALLSS  3.07
29. EADKNDKAVKWLVVLLFETALLSS  3.06
30. EADKNDKAVKVLVVLLFETALLSS  3.05
31. EADKNDKAVKDLVDLLFETALLSS  3.03
32. EADKNDKAHKDLVVLLFETALLSS  3
33. EADKNDKAVKDLRVLLFETALLSS  2.98
34. EADKNDKAVKFLVVLLFETALLSS  2.86
35. EADKNDKAVKDLVCLLFETALLSS  2.81
36. EADKNDKAPKDLVVLLFETALLSS  2.81
37. EADKNDKAVKYLVVLLFETALLSS  2.79
38. EADKNDYAVKDLVVLLFETALLSS  2.79
39. EADKNDIAVKDLVVLLFETALLSS  2.77
40. EADKNDKAVKDTVVLLFETALLSS  2.73
41. EADKNDKAVYDLVVLLFETALLSS  2.7
42. EADKNDKAVKGLVVLLFETALLSS  2.68
43. EADKNDKAVKNLVVLLFETALLSS  2.67
44. EADKNDKAVKDLVKLLFETALLSS  2.64
45. EADKNMKAVKDLVVLLFETALLSS  2.64
46. EADKNDKHVKDLVVLLFETALLSS  2.62
47. EADKNDKMVKDLVVLLFETALLSS  2.62
48. EADKNDKAVKHLVVLLFETALLSS  2.61
49. EADKNHKAVKDLVVLLFETALLSS  2.6
50. EADKNDKAVKDLHVLLFETALLSS  2.58
51. EADKADKAVKDLVVLLFETALLSS  2.57
52. EADKNDKCVKDLVVLLFETALLSS  2.56
53. EADKNDKAVKALVVLLFETALLSS  2.54
54. EADKNDKAVKDAVVLLFETALLSS  2.52
55. EADKNAKAVKDLVVLLFETALLSS  2.51
56. EADKNDKATKDLVVLLFETALLSS  2.49
57. EADKNDKAVVDLVVLLFETALLSS  2.48
58. EADKNCKAVKDLVVLLFETALLSS  2.48
59. EADKNDLAVKDLVVLLFETALLSS  2.47
60. EADKNDMAVKDLVVLLFETALLSS  2.47
61. EADKNDKAVKDIVVLLFETALLSS  2.46
62. EADKNDKDVKDLVVLLFETALLSS  2.44
63. EADKNDKADKDLVVLLFETALLSS  2.44
64. EADKTDKAVKDLVVLLFETALLSS  2.43
65. EADKNDKLVKDLVVLLFETALLSS  2.43
66. EADKNDKAVDDLVVLLFETALLSS  2.42
67. EADKNDKALKDLVVLLFETALLSS  2.42
68. EADKNDKAVKDLFVLLFETALLSS  2.41
69. EADKNDKAVKDLAVLLFETALLSS  2.41
70. EADKNDKAVHDLVVLLFETALLSS  2.38
71. EADKKDKAVKDLVVLLFETALLSS  2.35
72. EADKNDKAVKDCVVLLFETALLSS  2.35
73. EADKNDKAVKDLYVLLFETALLSS  2.33
74. EADKNDKAVKDLVQLLFETALLSS  2.33
75. EADKNDFAVKDLVVLLFETALLSS  2.32
76. EADKNDKAVKDLVRLLFETALLSS  2.29
77. EADKWDKAVKDLVVLLFETALLSS  2.28
78. EADKMDKAVKDLVVLLFETALLSS  2.27
79. EADKNLKAVKDLVVLLFETALLSS  2.27
80. EADKNDKAVTDLVVLLFETALLSS  2.26
81. EADKNDPAVKDLVVLLFETALLSS  2.24
82. EADKNDKAVFDLVVLLFETALLSS  2.22
83. EADKNDKSVKDLVVLLFETALLSS  2.22
84. EADFNDKAVKDLVVLLFETALLSS  2.21
85. EADKNDKAVKDLVNLLFETALLSS  2.21
86. EADKNDKAVKDMVVLLFETALLSS  2.2
87. EADKNDKNVKDLVVLLFETALLSS  2.2
88. EADENDKAVKDLVVLLFETALLSS  2.2
89. EADKNQKAVKDLVVLLFETALLSS  2.2
90. EADKNDKAVQDLVVLLFETALLSS  2.19
91. EADKNDKRVKDLVVLLFETALLSS  2.19
92. EADKNDKAVKDLVGLLFETALLSS  2.19
93. EADKNDKAVEDLVVLLFETALLSS  2.18
94. EADKNDKFVKDLVVLLFETALLSS  2.18
95. EADKNDKAVKDLVSLLFETALLSS  2.17
96. EADKNDKAFKDLVVLLFETALLSS  2.17
97. EADKNDGAVKDLVVLLFETALLSS  2.17
98. EADKNDKAVKDYVVLLFETALLSS  2.16
99. EADKNDKAYKDLVVLLFETALLSS  2.16
100. EADKNDKAVKKLVVLLFETALLSS  2.15
101. EADKNDKAKKDLVVLLFETALLSS  2.15
102. EADYNDKAVKDLVVLLFETALLSS  2.13
103. EADMNDKAVKDLVVLLFETALLSS  2.13
104. EADKNDKEVKDLVVLLFETALLSS  2.12
105. EADWNDKAVKDLVVLLFETALLSS  2.12
106. EADKNDKAVKDLVTLLFETALLSS  2.12
107. EADKNDKAVKDLLVLLFETALLSS  2.1
108. EADKNDKAVKDVVVLLFETALLSS  2.1
109. EADKNDKASKDLVVLLFETALLSS  2.1
110. EADQNDKAVKDLVVLLFETALLSS  2.09
111. EADKNDKWVKDLVVLLFETALLSS  2.07
112. EADKEDKAVKDLVVLLFETALLSS  2.06
113. EADTNDKAVKDLVVLLFETALLSS  2.06
114. EADNNDKAVKDLVVLLFETALLSS  2.05
115. EADKNDKAVKDLVILLFETALLSS  2.04
116. EADKNDKAVKDLCVLLFETALLSS  2.03
117. EADKNDRAVKDLVVLLFETALLSS  2.02
118. EADKNDKAVNDLVVLLFETALLSS  2.01
119. EADKNDKPVKDLVVLLFETALLSS  2.01
120. EADKSDKAVKDLVVLLFETALLSS  2
121. EADINDKAVKDLVVLLFETALLSS  2
122. EADKNDHAVKDLVVLLFETALLSS  2
123. EADKNDDAVKDLVVLLFETALLSS  2
124. EADKLDKAVKDLVVLLFETALLSS  1.99
125. EADKNDKAVKSLVVLLFETALLSS  1.99
126. EADKNDKAVKELVVLLFETALLSS  1.98
127. EADKNDKAVKDLVFLLFETALLSS  1.98
128. EADKNDKAVKQLVVLLFETALLSS  1.97
129. EADKNDKGVKDLVVLLFETALLSS  1.97
130. EADKNDKAAKDLVVLLFETALLSS  1.97
131. EADKNDKAVCDLVVLLFETALLSS  1.96
132. EADKNDKAVIDLVVLLFETALLSS  1.96
133. EADKNDKARKDLVVLLFETALLSS  1.95
134. EADKNDNAVKDLVVLLFETALLSS  1.95
135. EADKNDAAVKDLVVLLFETALLSS  1.95
136. EADKNDKKVKDLVVLLFETALLSS  1.94
137. EADKVDKAVKDLVVLLFETALLSS  1.93
138. EADKNDKAVKDLIVLLFETALLSS  1.93
139. EADKNDSAVKDLVVLLFETALLSS  1.92
140. EADKIDKAVKDLVVLLFETALLSS  1.9
141. EADKNNKAVKDLVVLLFETALLSS  1.9
142. EADKNVKAVKDLVVLLFETALLSS  1.9
143. EADKNDKTVKDLVVLLFETALLSS  1.87
144. EADKNDKAVGDLVVLLFETALLSS  1.86
145. EADVNDKAVKDLVVLLFETALLSS  1.85
146. EADKNGKAVKDLVVLLFETALLSS  1.85
147. EADKNDKAIKDLVVLLFETALLSS  1.84
148. EADKNDTAVKDLVVLLFETALLSS  1.84
149. EADKYDKAVKDLVVLLFETALLSS  1.83
150. EADKNDKAVMDLVVLLFETALLSS  1.83
151. EADKNDKAVWDLVVLLFETALLSS  1.83
152. EADKNDKAVSDLVVLLFETALLSS  1.82
153. EADKNDKAVADLVVLLFETALLSS  1.82
154. EADKNDKAVLDLVVLLFETALLSS  1.82
155. EADHNDKAVKDLVVLLFETALLSS  1.82
156. EADKNDKACKDLVVLLFETALLSS  1.81
157. EADKQDKAVKDLVVLLFETALLSS  1.8
158. EADKNDKAVRDLVVLLFETALLSS  1.8
159. EADSNDKAVKDLVVLLFETALLSS  1.8
160. EADKNDKAMKDLVVLLFETALLSS  1.8
161. EADKNDKAVKDLVALLFETALLSS  1.77
162. EADLNDKAVKDLVVLLFETALLSS  1.75
163. EADKNRKAVKDLVVLLFETALLSS  1.73
164. EADKNDKAVKDFVVLLFETALLSS  1.72
165. EADKNDKAVKDLVLLLFETALLSS  1.72
166. EADKNDKAWKDLVVLLFETALLSS  1.7
167. EADKNDKAQKDLVVLLFETALLSS  1.7
168. EADKNWKAVKDLVVLLFETALLSS  1.69
169. EADKNYKAVKDLVVLLFETALLSS  1.69
170. EADKHDKAVKDLVVLLFETALLSS  1.68
171. EADKGDKAVKDLVVLLFETALLSS  1.67
172. EADKNDQAVKDLVVLLFETALLSS  1.67
173. EADKNDKAVKMLVVLLFETALLSS  1.65
174. EADKFDKAVKDLVVLLFETALLSS  1.64
175. EADKRDKAVKDLVVLLFETALLSS  1.63
176. EADKNDKVVKDLVVLLFETALLSS  1.63
177. EADPNDKAVKDLVVLLFETALLSS  1.63
178. EADKNEKAVKDLVVLLFETALLSS  1.63
179. EADKNDKAVKDLVMLLFETALLSS  1.61
180. EADKPDKAVKDLVVLLFETALLSS  1.59
181. EADRNDKAVKDLVVLLFETALLSS  1.59
182. EADKNDKIVKDLVVLLFETALLSS  1.55
183. EADKNDKAVKPLVVLLFETALLSS  1.51
184. EADKNDKAVPDLVVLLFETALLSS  1.49
185. EADKNDCAVKDLVVLLFETALLSS  1.44
186. EADKNTKAVKDLVVLLFETALLSS  1.42
187. EADGNDKAVKDLVVLLFETALLSS  1.34
188. EADKNKKAVKDLVVLLFETALLSS  1.28
